Here are results for two substances from patent US20190375823A1.

One test deals with CD3 on Jurkat T cells (UniProt P07766). In words: cell-based or functional assay.
Another test concerns the target CD19 on Raji B cells (UniProt P15391). The test is described as follows: cell-based or functional assay.
In test [1] the target is HER2 and HER3 on cells (MALME-3M or SKOV cells). The test is described as follows: FACS on MALME-3M cells (20120529), FITC-labeled anti-HSA antibodies; apparent Kd.
For test [2] the target is unchanged. In words: FACS; column head prints Bmax (MALME 20120603). More on the design: unit not given here. A general note: A flow cytometer gives signals particle by particle.
The target is the same in test [3]. In words: FACS on SKOV cells (20120803), FITC-labeled anti-HSA antibodies; apparent Kd.
Test [4] has the same target. The test is described as follows: FACS on MALME-3M cells, FITC-labeled anti-HSA antibodies; upper end of the range.
Test [5] shares this target. The test is described as follows: FACS on SKOV-3 cells, FITC-labeled anti-HSA detection.
For test [6] the target is unchanged. In words: FACS on MALME-3M cells, FITC-labeled anti-HSA antibodies; lower end of the range.
Test [7] shares this target. The test is described as follows: FACS on MALME-3M cells (2012529), FITC-labeled anti-HSA antibodies.

One may read the EC50 (read off the curve) as the concentration that produces a half-maximal response.

CD19 on Raji B cells, sequence (P15391 20-556 limits assumed): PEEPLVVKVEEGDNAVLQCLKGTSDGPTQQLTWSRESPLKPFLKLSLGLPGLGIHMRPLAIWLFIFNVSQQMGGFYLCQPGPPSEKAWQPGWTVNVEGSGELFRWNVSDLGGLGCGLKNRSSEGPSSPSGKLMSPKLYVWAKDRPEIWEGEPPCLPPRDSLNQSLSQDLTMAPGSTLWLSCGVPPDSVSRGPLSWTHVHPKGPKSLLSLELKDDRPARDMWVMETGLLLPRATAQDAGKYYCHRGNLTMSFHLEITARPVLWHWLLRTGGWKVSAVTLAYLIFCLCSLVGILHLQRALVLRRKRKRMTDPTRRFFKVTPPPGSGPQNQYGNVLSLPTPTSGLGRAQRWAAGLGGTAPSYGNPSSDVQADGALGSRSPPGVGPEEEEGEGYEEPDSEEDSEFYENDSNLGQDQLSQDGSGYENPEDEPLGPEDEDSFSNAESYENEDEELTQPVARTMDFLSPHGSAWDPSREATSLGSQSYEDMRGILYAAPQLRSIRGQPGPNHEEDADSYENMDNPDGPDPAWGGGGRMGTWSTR
CD3 on Jurkat T cells, sequence (P07766 23-207): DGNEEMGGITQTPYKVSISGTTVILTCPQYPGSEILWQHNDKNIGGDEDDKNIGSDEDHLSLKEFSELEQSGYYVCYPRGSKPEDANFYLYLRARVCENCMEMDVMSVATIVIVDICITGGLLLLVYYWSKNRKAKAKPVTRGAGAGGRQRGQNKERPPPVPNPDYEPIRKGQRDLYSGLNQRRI

For the substance “v891: anti-CD3xCD19 BiTE control (bispecific antibody)”, the Whole cell bridging by FACS (Jurkat-violet + RAJI-FarRed): % of events labeled both violet and Far-red; needs binding of both CD3 and CD19 (% of total cells) with CD3 on Jurkat T cells and in the test with CD19 on Raji B cells was 21 in each case.
Turning to “v1087: benchmark control variant of MM-111 (anti-Her3 H3 scFv - AAS - albumin - AAAL - anti-Her2 B1D2 scFv) (bispecific antibody)”, the Kd in test [1] turned out to be 12000 nM; in [3] it was 10.7 nM; in test [4], 55 nM; in [6] it was 5 nM. The Bmax in [2] was found to be 6580; in [7], 1470. Also, the EC50 (read off the curve) in test [5] amounted to 10 nM.
